Test results taken from publication PMC11980541, “3D meshwork architecture of the outer coat protein CotE: implications for bacterial endospore sporulation and germination” (mBio, 2025).

Tests used:
[1] = target: CotE (outer coat protein CotE); conditions: PBS pH 7.2, 25 °C; 100 µM protein in cell, 1 mM DPA in syringe; C-terminal His-tagged trimeric mutant
[2] = target: W65E variant CotE protein, C-terminal His-tagged (Bacillus cereus); assay: SEC-MALS; Superdex 75 Increase 10/300 GL, 2 mg/mL protein, 20 mM Tris pH 8.0
[3] = target: wild-type CotE protein from Bacillus cereus (Bacillus cereus); assay: SEC; Superdex 200 Increase 10/300 GL, 20 mM Tris-HCl pH 8.0, no CaCl2; CotE 5 mg/mL; apparent molecular weight from a calibration curve
[4] = target: wild-type CotE protein from Bacillus cereus (Bacillus cereus); assay: cryo-EM structure; CotE 2 mg/mL with 5 mM CaCl2 (meshwork); C3 map of the trimer unit at 6.55 Å and C2 map of two joined trimers at 6.86 Å; AlphaFold2 trimer models fitted
[5] = target: wild-type CotE protein from Bacillus cereus (Bacillus cereus); assay: SEC; Superdex 200 Increase 10/300 GL, 20 mM Tris-HCl pH 8.0 with 5 mM CaCl2; CotE 5 mg/mL; apparent molecular weight from a calibration curve

## O=C(O)c1cccc(C(=O)O)n1 [DPA, dipicolinic acid]
[1]
  Kd: 6.3 µM

## W65E variant CotE protein, C-terminal His-tagged (natural protein)
[2]
  stoichiometry N: 3

## wild-type CotE protein from Bacillus cereus (natural protein)
[3]
  stoichiometry N: 12
[4]
  stoichiometry N: 3
[5]
  stoichiometry N: > 100
